In patent US20200289603A1 (ELIXIRON IMMUNOTHERAPEUTICS HONG KONG, published 2020):

What was measured:
[1] = target: recombinant human IFNγ protein (R&D systems, 285-IF-100) (human) (UniProt P01579); assay: BLI (ForteBio Octet RED96); summary sentence to Table 10
[2] = target: recombinant human IFNγ protein (R&D systems, 285-IF-100) (human) (UniProt P01579); assay: BLI (ForteBio Octet RED96); antibody captured on AHC anti-hIgG Fc biosensor, recombinant human IFNγ in solution; 1:1 Langmuir fit
[3] = target: T1, recombinant human IFNγ protein (R&D systems, 285-IF-100) (human, UniProt P01579 24-166); assay: cell-based or functional assay
T1 sequence: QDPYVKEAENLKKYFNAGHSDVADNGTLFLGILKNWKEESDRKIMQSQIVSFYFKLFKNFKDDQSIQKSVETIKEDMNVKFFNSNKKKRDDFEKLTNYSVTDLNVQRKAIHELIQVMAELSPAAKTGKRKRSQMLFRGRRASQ

BSA = target: T2, BSA (UniProt P02769 25-607); assay: ELISA on plate coated with BSA (2 µg/mL)
T2 construct: also called bovine serum albumin

[4] = target: T1, recombinant human IFNγ protein (R&D …); assay: BLI (ForteBio Octet RED96); summary sentence to Table 9
[5] = target: T1, recombinant human IFNγ protein (R&D …); assay: BLI (ForteBio Octet RED96); summary sentence to Table 10

T2 sequence (P02769 25-607 limits assumed): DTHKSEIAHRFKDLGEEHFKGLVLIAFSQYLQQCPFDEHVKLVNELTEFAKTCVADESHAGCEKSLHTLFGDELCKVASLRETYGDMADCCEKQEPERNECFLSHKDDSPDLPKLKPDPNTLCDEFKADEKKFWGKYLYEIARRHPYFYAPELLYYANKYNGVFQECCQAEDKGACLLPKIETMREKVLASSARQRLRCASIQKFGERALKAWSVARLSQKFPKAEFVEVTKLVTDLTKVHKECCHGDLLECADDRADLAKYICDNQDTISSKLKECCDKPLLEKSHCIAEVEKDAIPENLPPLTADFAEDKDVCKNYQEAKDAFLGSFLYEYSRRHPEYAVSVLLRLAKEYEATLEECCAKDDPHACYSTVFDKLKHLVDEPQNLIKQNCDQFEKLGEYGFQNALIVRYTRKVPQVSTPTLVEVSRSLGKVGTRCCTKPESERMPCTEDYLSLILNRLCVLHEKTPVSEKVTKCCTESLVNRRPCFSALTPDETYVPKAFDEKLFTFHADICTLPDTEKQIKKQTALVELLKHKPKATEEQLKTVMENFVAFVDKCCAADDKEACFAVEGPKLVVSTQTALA

AMG811 (antibody) showed a Kd [1] of less than 0.1 nM.

B1: 1E8 (antibody, from a related filing, V domains shown)
VH: EVQLLESGGGLVQPGGPLRLSCAASGFTFSIYSMNWVRQAPGKGLEWVSSISGSGDNTYYADSVKGRFTITRDSSKNTLYLQMNTLRAEDTAVYFCAKSGRNIISPGFDSWGQGTLVTVSS
VL: QPVLTQPPSASASLGASVTLTCTLNSDYGDYKVDWYQQRPGKGPRFVMRVGTGGIVGSKGDGIPDRFSVLGSGLNRFLTIKNIQEEDESDYYCGADHGSANNFIWVFGGGTKLTVL
B1 gave a Kd [2] of 0.261 nM, a koff [2] of 0.000121 s⁻¹ and a kon [2] of 464000 M⁻¹ s⁻¹.

B2: 2A6 (antibody, human IgG1, lambda, V domains shown)
VH: EVQLVESGGGLVKPGDSLTVSCVASGFTFSNYFIHWVRQAPGKGLEWVATISGRTKYMFYSDSLRGRFTVSRDNANNSVYLHMSSLRGEDTALYYCVRGYDHSDSNSAADLLHWGRGTLVTVSS
VL: NFMLTQPLSVSGYPGKTIVISCVRSSGSVASHYVQWFQQRPGSAPAMVIYEDSHRPSGIPDRFSGSVDASSNSASLTISGLKTEDEADYFCQSYYGNNQVLFGGGTKLTVLG
modifications: partial N-linked glycosylation at position 76 of the VH region
notes: Human IgG1 lambda, cloned from a single patient B cell and expressed in FreeStyle 293-F cells; also called 2A6 anti-IFNγ mAb
In the case of B2, the “inhibition of HLA-DR expression on THP-1 cells stimulated with 2 ng/mL recombinant human IFN-γ, IC50” value [3] is reported as 3.4 ng/mL, the binding result (BSA) is reported as “no binding (tested: 1 µg/mL and 0.1 µg/mL)” and the Kd [4] is reported as less than 0.1 nM.

B3: AB (antibody, V domains shown)
VH: B2 VH
VL: NFMLTQPHSVSESPGKTITISCTRGRGYIASYYVQWYQQRPGGVPKIVVFEDTQRPSGVPDRISGSIDTSTNSASLTISGLQTEDEADYYCQSYDDANHVIFGGGTKLTVLG
For B3, the Kd [5] was less than 0.1 nM and the binding result (BSA) was “no binding (tested: 1 µg/mL and 0.1 µg/mL)”.

B4: 2F2 (antibody, from a related filing, V domains shown)
VH: EVQLVESGGGLVKPGESLRLACVASGFNFSDYYMTWIRQAPGKGLEWVSYISNSGSHTYYADAVKGRFTVSRDNAKNSLYLQMTSLRGEDTAIYFCARDPSIMRGTYYMDVWGKGTTVTVSS
VL: QSVLTQPPSASGTPGQRVTISCSGSSSNIGTNPVSWYQQFPGMAPKLLIYFNNQRPSGVPERFSGSKSGTPASLAIGGLQSEDEANYYCASWDDTLNGLVFGGGTKLTVL
B4 gave a Kd [2] of 0.317 nM, a koff [2] of 0.000109 s⁻¹ and a kon [2] of 344000 M⁻¹ s⁻¹.

B5: 2B6 (antibody, human IgG1, lambda, V domains shown)
VH: EVQLVESGGGLVKPGGSLRLSCAASGFPFSRYSMHWVRQAPGKGLEWVSSMTSRTNHKYYADSLKGRFLISRDNDRDSLYLEMNSLGVEDTAIYFCARGYDTSGSDSGVDFQYWGQGTLVTVSS
VL: B3 VL
notes: Human IgG1 lambda; also called 2B6 anti-IFNγ mAb
For B5, the “inhibition of HLA-DR expression on THP-1 cells stimulated with 2 ng/mL recombinant human IFN-γ, IC50” value [3] was 3.5 ng/mL, the binding result (BSA) was “no binding (tested: 1 µg/mL and 0.1 µg/mL)” and the Kd [4] was less than 0.1 nM.

B6: BA (antibody, V domains shown)
VH: B5 VH
VL: NFMLTQPLSVSGYPGKTIVISCVRSSGSVASHYVQWFQQRPGSAPAMVIYEDSHRPSGIPDRFSGSVDASSNSASLTISGLKTEDEADYFCQSYYGNNQVLFGGGTKLTVL
notes: Expressed from the same human IgG1 lambda vector as 2A6 and 2B6; also called antibody having the 2B6-VH and 2A6-VL
B6: no binding (tested: 1 µg/mL and 0.1 µg/mL) (BSA).
